System: human embryonic stem cells (hESCs)
Test: Other growth factors in place of bFGF for undifferentiated growth of hESCs
Type: cell-based
Details: feeder- and serum-free conditions
Experimental: All the growth factors were dissolved in a PBS buffer that contained 0.5% BSA, 1 mM DTT (Dithiothreitol) and 10% glyceral as a 10 μg/ml (500×) stock solution and stored in aliquots at −80° C. These factors were added individually to the hESC cultures at a concentration of 20 ng/ml, in the absence of bFGF or in the presence of a low concentration of bFGF (4 ng/ml). Seven days after seeding undifferentiated hESCs on laminin/collagen-coated plates, the cultures were examined.

B1: activin-A: human growth factor tested in place of bFGF (protein, UniProt P08476 311-426, looked up)
Inhibin beta A chain: GLECDGKVNICCKKQFFVSFKDIGWNDWIIAPSGYHANYCEGECPSHIAGTSGSSLSFHSTVINHYRMRGHSPFANLKSCCVPTKLRPMSMLYYDDGQNIIKKDIQNMIVEECGCS
ability to replace bFGF in supporting undifferentiated growth of hESCs: can not replace bFGF
